Key:
Grb2 SH2 = Grb2 SH2 (UniProt P62993); assay: SH2 binding enrichment of the phosphorylated peptide, bacterial display (enrichment ratio); higher = better substrate or ligand; peptides without Tyr show the background
c-Src SH2 = assay: as above
SHP2-C SH2 = assay: as above
Fer (mouse) = assay: phosphorylation enrichment, bacterial display (enrichment ratio); higher = better substrate or ligand; peptides without Tyr show the background
c-Src = assay: as above
c-Abl (mouse) = assay: as above
Hck = Hck (UniProt P08631); assay: as above
Hck, sequence (P08631 whole entry, looked up): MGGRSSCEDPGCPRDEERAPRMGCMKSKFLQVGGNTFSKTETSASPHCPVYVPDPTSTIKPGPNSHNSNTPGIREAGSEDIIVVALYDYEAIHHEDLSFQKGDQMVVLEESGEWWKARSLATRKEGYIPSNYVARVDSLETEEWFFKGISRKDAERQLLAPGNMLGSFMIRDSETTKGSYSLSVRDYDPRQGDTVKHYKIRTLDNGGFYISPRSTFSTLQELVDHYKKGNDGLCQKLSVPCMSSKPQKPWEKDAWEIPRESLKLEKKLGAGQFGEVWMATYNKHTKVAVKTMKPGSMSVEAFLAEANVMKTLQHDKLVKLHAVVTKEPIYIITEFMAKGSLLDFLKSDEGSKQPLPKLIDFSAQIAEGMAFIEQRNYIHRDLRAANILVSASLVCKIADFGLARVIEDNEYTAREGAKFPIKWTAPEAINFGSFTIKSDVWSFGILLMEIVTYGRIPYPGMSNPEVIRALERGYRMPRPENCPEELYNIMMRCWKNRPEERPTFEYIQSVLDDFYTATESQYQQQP

Fes = Fes (UniProt P07332); assay: as above
MERTK = MERTK (UniProt Q12866); assay: as above
MERTK, sequence (Q12866 whole entry, looked up): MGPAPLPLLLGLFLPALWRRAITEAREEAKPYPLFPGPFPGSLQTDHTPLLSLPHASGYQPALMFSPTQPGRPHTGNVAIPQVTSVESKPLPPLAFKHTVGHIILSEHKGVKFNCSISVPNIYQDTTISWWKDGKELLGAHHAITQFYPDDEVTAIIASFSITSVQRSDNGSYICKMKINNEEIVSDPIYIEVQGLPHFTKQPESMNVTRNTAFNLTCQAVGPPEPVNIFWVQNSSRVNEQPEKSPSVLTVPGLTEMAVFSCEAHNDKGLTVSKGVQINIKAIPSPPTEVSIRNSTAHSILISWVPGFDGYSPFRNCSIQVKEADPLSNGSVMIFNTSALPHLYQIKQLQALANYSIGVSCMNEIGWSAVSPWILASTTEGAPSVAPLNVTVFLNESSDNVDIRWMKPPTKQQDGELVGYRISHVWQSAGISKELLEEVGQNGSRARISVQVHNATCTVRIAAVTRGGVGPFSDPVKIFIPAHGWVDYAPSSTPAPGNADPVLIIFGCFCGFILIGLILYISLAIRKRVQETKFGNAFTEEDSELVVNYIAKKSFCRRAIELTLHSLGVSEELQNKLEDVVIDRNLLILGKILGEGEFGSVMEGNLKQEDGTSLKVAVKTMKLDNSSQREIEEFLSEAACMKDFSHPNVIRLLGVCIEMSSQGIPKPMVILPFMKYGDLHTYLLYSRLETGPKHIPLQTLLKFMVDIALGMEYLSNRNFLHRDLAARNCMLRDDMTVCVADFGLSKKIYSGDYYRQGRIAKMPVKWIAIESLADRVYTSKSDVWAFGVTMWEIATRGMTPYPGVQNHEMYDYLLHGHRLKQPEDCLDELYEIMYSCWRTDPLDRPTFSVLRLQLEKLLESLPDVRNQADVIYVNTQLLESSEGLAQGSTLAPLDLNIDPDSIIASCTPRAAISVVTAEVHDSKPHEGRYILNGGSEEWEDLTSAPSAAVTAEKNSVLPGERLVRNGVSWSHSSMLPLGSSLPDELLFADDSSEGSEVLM

EPHB2 = EPHB2 (UniProt P29323); assay: as above
Fyn = Fyn (UniProt P06241); assay: as above
Fyn, sequence (P06241 whole entry, looked up): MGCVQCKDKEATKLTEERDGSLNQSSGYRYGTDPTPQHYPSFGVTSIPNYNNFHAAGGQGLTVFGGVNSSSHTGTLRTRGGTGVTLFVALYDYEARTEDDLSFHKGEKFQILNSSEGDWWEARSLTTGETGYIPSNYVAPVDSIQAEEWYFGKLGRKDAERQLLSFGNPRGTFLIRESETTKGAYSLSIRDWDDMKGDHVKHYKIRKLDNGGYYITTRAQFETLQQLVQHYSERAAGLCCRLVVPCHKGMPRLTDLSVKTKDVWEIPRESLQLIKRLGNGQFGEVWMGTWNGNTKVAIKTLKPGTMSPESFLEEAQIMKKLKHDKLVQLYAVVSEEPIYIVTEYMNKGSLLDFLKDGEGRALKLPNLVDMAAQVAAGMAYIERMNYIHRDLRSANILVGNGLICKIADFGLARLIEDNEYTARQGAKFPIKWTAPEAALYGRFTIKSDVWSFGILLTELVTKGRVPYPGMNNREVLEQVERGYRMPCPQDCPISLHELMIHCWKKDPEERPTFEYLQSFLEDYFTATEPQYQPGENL

AncSZ = assay: as above
FGFR1 = FGFR1 (UniProt P11362); assay: as above
FGFR1, sequence (P11362 whole entry, looked up): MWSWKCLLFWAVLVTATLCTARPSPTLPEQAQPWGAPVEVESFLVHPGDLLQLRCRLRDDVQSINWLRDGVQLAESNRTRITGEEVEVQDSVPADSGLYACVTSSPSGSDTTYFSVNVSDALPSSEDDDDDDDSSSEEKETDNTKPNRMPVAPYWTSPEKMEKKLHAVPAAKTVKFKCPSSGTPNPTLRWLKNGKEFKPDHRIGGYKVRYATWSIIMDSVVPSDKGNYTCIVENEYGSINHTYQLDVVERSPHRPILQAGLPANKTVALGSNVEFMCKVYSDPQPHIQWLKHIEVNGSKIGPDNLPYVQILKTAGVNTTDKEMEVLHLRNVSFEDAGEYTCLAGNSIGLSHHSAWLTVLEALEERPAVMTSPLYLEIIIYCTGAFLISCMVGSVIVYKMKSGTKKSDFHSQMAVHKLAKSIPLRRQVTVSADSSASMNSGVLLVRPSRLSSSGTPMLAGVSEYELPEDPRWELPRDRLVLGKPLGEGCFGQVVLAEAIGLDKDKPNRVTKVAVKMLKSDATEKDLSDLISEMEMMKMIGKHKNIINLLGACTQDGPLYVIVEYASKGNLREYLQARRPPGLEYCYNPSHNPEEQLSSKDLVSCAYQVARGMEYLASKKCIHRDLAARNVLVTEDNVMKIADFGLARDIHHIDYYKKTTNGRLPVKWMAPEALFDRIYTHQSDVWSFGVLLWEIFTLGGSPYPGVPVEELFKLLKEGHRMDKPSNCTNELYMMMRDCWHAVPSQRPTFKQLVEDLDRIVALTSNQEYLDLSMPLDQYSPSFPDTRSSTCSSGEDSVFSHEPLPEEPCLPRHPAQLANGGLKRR

Jak2 = Jak2 (UniProt O60674); assay: as above
Jak2, sequence (O60674 whole entry, looked up): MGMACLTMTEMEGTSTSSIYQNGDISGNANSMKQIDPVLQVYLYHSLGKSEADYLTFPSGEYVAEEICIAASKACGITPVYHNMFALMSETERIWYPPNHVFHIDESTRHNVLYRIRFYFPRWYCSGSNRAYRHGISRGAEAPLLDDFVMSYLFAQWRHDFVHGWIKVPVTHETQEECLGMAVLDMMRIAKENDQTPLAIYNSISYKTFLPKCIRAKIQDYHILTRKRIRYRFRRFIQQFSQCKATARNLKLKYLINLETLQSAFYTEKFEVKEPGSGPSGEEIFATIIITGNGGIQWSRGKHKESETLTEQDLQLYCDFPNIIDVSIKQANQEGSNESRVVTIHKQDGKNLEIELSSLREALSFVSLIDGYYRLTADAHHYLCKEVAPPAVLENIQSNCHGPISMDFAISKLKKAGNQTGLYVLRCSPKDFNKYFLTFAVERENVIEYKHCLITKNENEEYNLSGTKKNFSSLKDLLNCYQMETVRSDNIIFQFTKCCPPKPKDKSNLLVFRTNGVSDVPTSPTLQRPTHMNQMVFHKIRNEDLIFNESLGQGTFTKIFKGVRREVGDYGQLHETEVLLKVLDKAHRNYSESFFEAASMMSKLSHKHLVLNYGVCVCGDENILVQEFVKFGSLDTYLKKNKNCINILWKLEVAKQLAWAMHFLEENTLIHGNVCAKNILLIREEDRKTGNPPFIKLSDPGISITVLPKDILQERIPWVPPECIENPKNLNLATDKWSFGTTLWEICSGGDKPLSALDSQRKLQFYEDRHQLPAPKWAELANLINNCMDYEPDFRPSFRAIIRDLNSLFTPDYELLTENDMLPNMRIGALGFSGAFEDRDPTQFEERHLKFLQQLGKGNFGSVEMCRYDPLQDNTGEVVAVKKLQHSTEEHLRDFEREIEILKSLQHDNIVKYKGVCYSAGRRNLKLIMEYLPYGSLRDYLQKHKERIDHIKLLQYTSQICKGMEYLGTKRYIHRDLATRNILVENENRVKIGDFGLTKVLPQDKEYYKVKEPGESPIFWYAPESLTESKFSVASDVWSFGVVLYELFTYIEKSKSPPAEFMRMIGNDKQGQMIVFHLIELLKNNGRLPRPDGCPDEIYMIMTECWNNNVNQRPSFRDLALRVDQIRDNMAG

FGFR3 = FGFR3 (UniProt P22607); assay: as above
EPHB1 = EPHB1 (UniProt P54762); assay: as above
EPHB1, sequence (P54762 whole entry, looked up, the tested form may be a part): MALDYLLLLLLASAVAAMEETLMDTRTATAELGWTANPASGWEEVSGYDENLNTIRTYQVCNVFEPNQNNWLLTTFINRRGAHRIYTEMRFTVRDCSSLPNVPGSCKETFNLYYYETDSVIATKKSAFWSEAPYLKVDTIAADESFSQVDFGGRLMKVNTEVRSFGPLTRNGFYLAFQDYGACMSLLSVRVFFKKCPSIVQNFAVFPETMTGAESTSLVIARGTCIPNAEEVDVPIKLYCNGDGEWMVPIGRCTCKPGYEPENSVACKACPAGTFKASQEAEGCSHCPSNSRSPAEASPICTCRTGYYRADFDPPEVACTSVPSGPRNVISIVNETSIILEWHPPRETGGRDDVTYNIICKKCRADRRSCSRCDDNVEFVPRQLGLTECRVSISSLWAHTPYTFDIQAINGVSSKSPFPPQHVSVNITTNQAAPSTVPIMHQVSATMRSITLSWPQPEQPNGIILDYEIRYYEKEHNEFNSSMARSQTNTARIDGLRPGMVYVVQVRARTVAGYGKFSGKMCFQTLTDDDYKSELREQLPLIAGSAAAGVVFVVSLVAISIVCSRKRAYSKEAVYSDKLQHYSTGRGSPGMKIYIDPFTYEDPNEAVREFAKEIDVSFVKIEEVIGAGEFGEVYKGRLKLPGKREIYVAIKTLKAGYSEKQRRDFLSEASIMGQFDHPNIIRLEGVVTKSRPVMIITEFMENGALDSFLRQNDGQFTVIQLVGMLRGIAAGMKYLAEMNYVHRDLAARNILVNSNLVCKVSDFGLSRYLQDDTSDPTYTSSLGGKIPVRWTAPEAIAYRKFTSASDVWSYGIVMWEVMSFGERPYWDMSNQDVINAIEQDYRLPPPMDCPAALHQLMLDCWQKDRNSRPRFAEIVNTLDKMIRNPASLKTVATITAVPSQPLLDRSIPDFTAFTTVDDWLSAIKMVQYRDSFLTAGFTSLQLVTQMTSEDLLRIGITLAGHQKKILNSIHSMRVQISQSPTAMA
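For SH2 binding enrichment of the phosphorylated peptide, bacterial display in this document: peptide library displayed on the E. coli surface as eCPX fusions, selected cells deep-sequenced, score is each peptide's frequency after selection divided by its frequency in the input.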
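For phosphorylation enrichment, bacterial display in this document: 11-residue human phosphosite peptides and single-mutation variants displayed on the E. coli surface, counted by deep sequencing, each peptide's frequency after selection divided by its frequency in the unselected input library; frequency after pTyr selection over input frequency; kinase dosed for 20-30% of maximal phosphorylation in three min.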

| Sequence | SH2 binding enrichment (Grb2 SH2) | SH2 binding enrichment (c-Src SH2) | SH2 binding enrichment (SHP2-C SH2) | phosphorylation enrichment (Fer (mouse)) | phosphorylation enrichment (c-Src) | phosphorylation enrichment (c-Abl (mouse)) | phosphorylation enrichment (Hck) | phosphorylation enrichment (Fes) | phosphorylation enrichment (MERTK) | phosphorylation enrichment (EPHB2) | phosphorylation enrichment (Fyn) | phosphorylation enrichment (AncSZ) | phosphorylation enrichment (FGFR1) | phosphorylation enrichment (Jak2) | phosphorylation enrichment (FGFR3) | phosphorylation enrichment (EPHB1) |
| --- | --- | --- | --- | --- | --- | --- | --- | --- | --- | --- | --- | --- | --- | --- | --- | --- |
| YFCRWYRNQKS [EREG_Y144_R147Q] | 0.712 | 0.275 | 0.545 | 0.454 | 0.477 | 0.444 | 0.372 | 0.48 | 0.523 | 0.385 | 0.447 | 0.565 | 0.473 | 0.371 | 0.548 | 0.481 |
| HPHECYAKVFD [ALB_Y394_D389H] | 0.944 | 3.07 | 2.67 | 0.624 | 0.659 | 1.01 | 0.654 | 1.36 | 0.764 | 0.441 | 0.622 | 1.16 | 0.636 | 1.3 | 0.845 | 0.641 |
| QYNMQYSSSAA [ERBB2IP_Y981_I979M] | 1.04 | 0.603 | 1.72 | 0.872 | 0.859 | 1.09 | 0.732 | 1.18 | 0.793 | 0.687 | 0.736 | 0.882 | 0.792 | 0.956 | 0.655 | 0.445 |
| ADRSCYDLSCR [GARS1_Y467_H472R] | 1.06 | 1.17 | 0.779 | 0.474 | 0.616 | 0.847 | 0.594 | 0.835 | 0.445 | 0.591 | 0.572 | 0.849 | 0.499 | 0.8 | 0.55 | 0.487 |
| STSYDYCRVPM [BST2_Y8] | 0.858 | 1.54 | 0.937 | 4.37 | 1.13 | 1.11 | 2.22 | 0.892 | 3.24 | 10.3 | 0.711 | 3.77 | 7.46 | 2.55 | 5.34 | 11.7 |
| ESPGLCGFLNV [BCR_Y910_Y910C] | 0.622 | 0.377 | 0.63 | 0.476 | 0.453 | 0.844 | 0.487 | 1.38 | 0.519 | 0.617 | 0.494 | 1.01 | 0.557 | 0.979 | 0.72 | 0.595 |
| STTSDYQWDVS [MTDH_Y364] | 0.921 | 0.449 | 0.612 | 0.476 | 0.407 | 0.782 | 0.508 | 1.22 | 0.387 | 0.615 | 0.54 | 1.23 | 0.659 | 1.05 | 0.865 | 0.741 |
| KKKKQYKDKFL [CASK_Y708_YF] | 0.683 | 0.453 | 0.408 | 0.502 | 0.739 | 0.699 | 0.589 | 0.642 | 0.782 | 0.634 | 0.701 | 0.893 | 0.572 | 0.724 | 0.55 | 0.687 |
| HDHFGYRQSVT [CD55_Y245_R240H_YF] | 0.803 | 0.628 | 0.871 | 0.482 | 0.725 | 0.659 | 0.51 | 0.896 | 0.346 | 0.434 | 0.444 | 0.733 | 0.479 | 0.536 | 0.528 | 0.65 |
| CLAKMYFSAVD [CP_Y539_YF] | 0.895 | 0.606 | 0.608 | 0.506 | 0.563 | 1.03 | 0.527 | 1.26 | 0.414 | 0.592 | 0.519 | 1.04 | 0.519 | 1.06 | 0.765 | 0.662 |
| GISDEYHVIQH [GCDH_Y398_R402Q] | 0.804 | 0.816 | 0.567 | 0.447 | 0.898 | 0.641 | 0.846 | 0.928 | 0.496 | 0.526 | 0.752 | 1.64 | 6.93 | 0.883 | 3.78 | 0.554 |
| NKFTTYLPWLP [C9orf24_Y126_R129W_YF] | 1.19 | 0.815 | 0.89 | 6.84 | 4.54 | 1.6 | 8.27 | 1.06 | 1.4 | 6.61 | 5.73 | 1.04 | 1.43 | 1.75 | 1.25 | 3.63 |
| IHFAIYFLKYS [ARMC9_Y107_L108F] | 1.18 | 1.11 | 1.22 | 0.586 | 0.585 | 1.09 | 0.787 | 1.41 | 0.529 | 0.718 | 0.723 | 1.21 | 0.666 | 1.73 | 1.01 | 0.789 |
| LFDPDFMKVIL [CYP4A22_Y104_Y104F_YF] | 1.06 | 0.463 | 0.543 | 0.999 | 1.23 | 2.1 | 1.12 | 2.6 | 1.06 | 0.908 | 0.899 | 2.44 | 1.15 | 2.74 | 1.86 | 1.63 |
| CRVEPYGENFN [APOA4_Y310_R305C] | 0.703 | 0.675 | 0.712 | 0.649 | 0.616 | 1.1 | 0.608 | 1.57 | 0.583 | 0.651 | 0.441 | 1.28 | 0.603 | 1.28 | 0.869 | 0.675 |

Further lines, with some results ahead:

| SH2 binding enrichment (Grb2 SH2) | SH2 binding enrichment (c-Src SH2) | SH2 binding enrichment (SHP2-C SH2) | Sequence | phosphorylation enrichment (Fer (mouse)) | phosphorylation enrichment (c-Src) | phosphorylation enrichment (c-Abl (mouse)) | phosphorylation enrichment (Hck) | phosphorylation enrichment (Fes) | phosphorylation enrichment (MERTK) | phosphorylation enrichment (EPHB2) | phosphorylation enrichment (Fyn) | phosphorylation enrichment (AncSZ) | phosphorylation enrichment (FGFR1) | phosphorylation enrichment (Jak2) | phosphorylation enrichment (FGFR3) | phosphorylation enrichment (EPHB1) |
| --- | --- | --- | --- | --- | --- | --- | --- | --- | --- | --- | --- | --- | --- | --- | --- | --- |
| 1.48 | 0.936 | 0.95 | LFRFGYANTSE [SI_Y1233_C1229Y_YF] | 0.433 | 0.376 | 0.847 | 0.51 | 0.937 | 0.315 | 0.585 | 0.411 | 0.696 | 0.619 | 0.807 | 0.497 | 0.378 |
| 0.826 | 2.86 | 1.84 | LEAVSYSSPYA [RNLS_Y190_R193P] | 0.714 | 1.12 | 2.02 | 1.07 | 1.03 | 0.627 | 0.936 | 0.864 | 1.81 | 0.697 | 1.51 | 0.987 | 0.818 |
| 1.02 | 8.28 | 4.49 | CPTIHYNYMCN [TP53_Y234_T230P] | 0.621 | 0.462 | 0.634 | 0.429 | 0.999 | 0.462 | 0.607 | 0.594 | 0.843 | 0.54 | 0.776 | 0.586 | 0.603 |
| 1.03 | 0.557 | 0.691 | VLTPKYRGGGG [HBA1_Y141_S139P] | 0.364 | 0.34 | 0.421 | 0.32 | 0.464 | 0.35 | 0.372 | 0.363 | 0.498 | 0.348 | 0.335 | 0.413 | 0.328 |
| 0.686 | 0.206 | 0.316 | HRGCLYLAIEF [TEK_Y899_Y897C_YF] | 0.511 | 0.49 | 1.31 | 0.367 | 1.37 | 0.467 | 1.81 | 0.26 | 1.29 | 0.667 | 1.33 | 1.17 | 0.758 |
| 1.05 | 0.699 | 0.782 | AIFWRYSKFFD [SH3PXD2B_Y45_R43W_YF] | 0.49 | 0.326 | 0.959 | 0.41 | 1.35 | 0.323 | 0.52 | 0.444 | 0.839 | 0.445 | 1.16 | 0.805 | 0.493 |
| 0.977 | 0.545 | 0.894 | TQFWRYFAGNL [SLC25A5_Y112_L111R] | 0.351 | 0.489 | 1.55 | 0.493 | 1.05 | 0.433 | 0.589 | 0.509 | 0.918 | 0.494 | 0.951 | 0.655 | 0.6 |
| 0.906 | 0.584 | 0.749 | HHTDEYEYDEL [TGM1_Y134] | 0.958 | 0.916 | 1.08 | 0.943 | 1.59 | 0.687 | 0.904 | 1.01 | 2.01 | 1.02 | 1.19 | 1.05 | 1.02 |
| 0.78 | 0.447 | 0.392 | KQRKEYMHRRQ [IQGAP2_Y710] | 0.437 | 0.518 | 0.649 | 0.526 | 0.715 | 0.452 | 0.444 | 0.477 | 0.696 | 0.375 | 0.636 | 0.519 | 0.551 |
| 1.04 | 0.524 | 0.521 | ISIFHCAKGQP [MPZ_Y82_Y82C] | 0.643 | 0.609 | 0.954 | 0.608 | 1.7 | 0.62 | 0.845 | 0.602 | 1.33 | 0.729 | 1.41 | 1.02 | 0.773 |
| 0.662 | 0.425 | 0.703 | DPHKIFEFVNS [IRF3_Y107_Y107F] | 0.771 | 0.417 | 0.431 | 0.607 | 0.88 | 0.412 | 0.539 | 0.606 | 0.791 | 0.643 | 0.615 | 0.596 | 0.54 |
| 0.744 | 0.668 | 0.729 | DSGKLYALDVL [INO80_Y1104] | 0.676 | 1.02 | 0.643 | 0.58 | 0.93 | 3.17 | 0.705 | 0.752 | 0.921 | 0.525 | 0.731 | 0.721 | 0.711 |
| 0.981 | 0.645 | 0.826 | VVIMLYGVDSR [PKD1_Y3143_G3139V] | 0.682 | 0.524 | 1.04 | 0.594 | 1.57 | 0.399 | 0.72 | 0.592 | 1.29 | 0.545 | 1.35 | 0.924 | 0.879 |
| 0.731 | 0.841 | 0.634 | FDAHNYHPLPV [OAT_Y55_G51D_YF] | 1.13 | 0.556 | 0.807 | 1.1 | 0.734 | 1.09 | 0.762 | 0.501 | 0.731 | 10.7 | 1.02 | 5.97 | 0.635 |
| 1.22 | 1.02 | 1.37 | PGIRMYQVQYN [LRFN1_Y454] | 0.446 | 0.727 | 0.995 | 0.503 | 1.39 | 0.764 | 0.92 | 0.815 | 1.06 | 0.67 | 1.24 | 0.863 | 0.93 |
| 0.735 | 0.642 | 0.64 | EQKKFSNAMKK [SCN5A_Y1495_Y1495S_YF] | 0.331 | 0.401 | 0.375 | 0.364 | 0.473 | 0.326 | 0.345 | 0.293 | 0.474 | 0.378 | 0.315 | 0.693 | 0.229 |
| 0.776 | 0.448 | 0.535 | WKKEIYEESST [MOCS2_Y170] | 0.471 | 0.485 | 0.83 | 0.488 | 1.17 | 0.378 | 0.603 | 0.424 | 1.04 | 2.85 | 1.18 | 0.661 | 0.422 |
| 0.87 | 0.43 | 0.57 | SWSTSYSGFRC [NKAPL_Y91_Y96C_YF] | 0.531 | 0.972 | 0.761 | 0.642 | 1.1 | 0.424 | 0.597 | 0.643 | 0.985 | 0.528 | 0.877 | 0.763 | 0.616 |

Reference: the supplement of paper PMC10065799, “High-throughput profiling of sequence recognition by tyrosine kinases and SH2 domains using bacterial peptide display” (eLife, 2023)
